Numbering of substitutions follows the chain as printed. Names and notes keep the numbering of the source. Like-named read-outs stand apart in the source and are kept apart here. Each block holds one binder with its values, some of them ahead of it.
Assays:
FcgRIIa R = target: T1, FcgRIIa R (human, UniProt P12318 34-217); test: SPR (Biacore); KD of GpH7-Kn033/GpH7-Hl033/GpL16-k0 for this FcγR divided by KD of this antibody (reference itself)
T1 construct: extracellular domain; also called FcγRIIa R; FcγRIIa type R
T1 sequence (looked up): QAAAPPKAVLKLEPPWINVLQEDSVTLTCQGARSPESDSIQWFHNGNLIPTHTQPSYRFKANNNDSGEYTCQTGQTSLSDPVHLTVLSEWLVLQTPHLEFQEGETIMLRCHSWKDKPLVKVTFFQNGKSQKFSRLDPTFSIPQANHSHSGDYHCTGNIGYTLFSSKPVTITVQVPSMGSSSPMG

FcgRIIb = target: T2, FcgRIIb (human, UniProt P31994 43-217); test: as above
T2 construct: extracellular domain; also called FcγRIIb; CD32B
T2 sequence (looked up): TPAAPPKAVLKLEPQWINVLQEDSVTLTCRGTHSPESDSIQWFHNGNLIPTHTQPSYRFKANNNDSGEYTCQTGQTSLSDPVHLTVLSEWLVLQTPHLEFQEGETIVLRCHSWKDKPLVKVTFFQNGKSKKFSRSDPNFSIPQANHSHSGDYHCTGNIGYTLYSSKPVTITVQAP

FcgRIIIa F = target: T3, FcgRIIIa F (human, UniProt P08637 17-208); test: as above
T3 construct: extracellular domain; also called FcγRIIIa F; FcγRIIIaF
T3 sequence (P08637 17-208): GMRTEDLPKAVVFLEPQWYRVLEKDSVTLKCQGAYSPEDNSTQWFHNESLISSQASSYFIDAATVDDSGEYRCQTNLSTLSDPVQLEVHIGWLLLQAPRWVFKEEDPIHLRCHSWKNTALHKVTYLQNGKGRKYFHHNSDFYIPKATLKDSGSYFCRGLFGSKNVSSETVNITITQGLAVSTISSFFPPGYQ

FcgRIIIa V = target: T4, FcgRIIIa V (human, UniProt P08637 17-208); test: as above
T4 construct: extracellular domain; also called FcγRIIIa V; FcγRIIIaV
T4 sequence (P08637 17-208 F176V limits assumed): as the sequence (P08637 17-208) above, with F160V counted along it

FcgRIIa H = target: T5, FcgRIIa H (human, UniProt P12318 34-217); test: as above
T5 construct: extracellular domain; also called FcγRIIa H; FcγRIIa type H
T5 sequence (looked up): T1 sequence (looked up) with R134H

FcgRIa = target: T6, FcgRIa (human, UniProt P12314 16-292); test: as above
T6 construct: extracellular domain; also called FcγRIa; FcγRI
T6 sequence (P12314 16-292): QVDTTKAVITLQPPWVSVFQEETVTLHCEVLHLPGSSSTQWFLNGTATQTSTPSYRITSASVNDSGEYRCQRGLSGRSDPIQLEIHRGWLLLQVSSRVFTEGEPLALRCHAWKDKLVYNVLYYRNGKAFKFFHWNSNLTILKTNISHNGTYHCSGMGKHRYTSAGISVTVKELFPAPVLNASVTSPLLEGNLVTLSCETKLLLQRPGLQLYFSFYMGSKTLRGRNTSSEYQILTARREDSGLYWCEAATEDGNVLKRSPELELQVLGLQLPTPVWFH

FcγRIIIa F = FcγRIIIa F (human, UniProt P08637 17-208); test: SPR (Biacore), KD; the variant that showed the most enhancement
Sequence of FcγRIIIa F (P08637 17-208): as the sequence (P08637 17-208) above

FcγRIIa R = FcγRIIa R (human, UniProt P12318 34-217); test: SPR (Biacore), KD; showed the most enhancement
FcγRIIa H = FcγRIIa H (human, UniProt P12318 34-217); test: SPR (Biacore), KD; showed the most enhancement
FcγRIIIa V = FcγRIIIa V (human, UniProt P08637 17-208); test: SPR (Biacore), KD; the variant that showed the most enhancement
Sequence of FcγRIIIa V (P08637 17-208): as above

[1] = target: T7, FcγRIa extracellular domain with C-terminal His tag (human, UniProt P12314 16-292); test: SPR (Biacore), antibody captured on chip, soluble FcγR as analyte, 1:1 Langmuir fit
T7 construct: extracellular domain; Soluble receptor expressed in FreeStyle293 cells; used as analyte in Biacore; also called FcgRIa; FcgRI; not shown: His tag at the C terminus
T7 sequence (P12314 16-292): as the sequence (P12314 16-292) above
Experimental: (§1) Analysis of interaction between objective antibody and the FcγR was carried out using Biacore T100 (GE Healthcare), Biacore T200, Biacore A100, and Biacore 4000. HBS-EP+ (GE Healthcare) was used as the running buffer, and the measurement temperature was set to 25° C. Chips produced by immobilizing the antigen peptide by the amine coupling method to a Series S sensor Chip CM5 (GE Healthcare), chips produced by allowing preliminarily biotinylated antigen peptides to interact with and immobilize onto a Series S Sensor Chip SA (certified) (GE Healthcare), chips produced by immobilizing Protein L (ACTIGEN, BioVision) to Series S Sencor Chip CM5 (GE Healthcare), or chips produced by immobilizing Protein A/G (Thermo Scientific) to Series S Sencor Chip CM5 (GE Healthcare) were used. Antibodies of interest were captured onto these chips, and allowed to interact to each FcγR diluted with running buffer. To regenerate and repeatedly use the chip, the antibodies captured onto the chip were washed off by reacting 10 mM glycine-HCl, pH 1.5.

[2] = target: T8, FcγRIIIa V extracellular domain with C-terminal His tag (human, UniProt P08637 17-208); test: as above
T8 construct: extracellular domain; Soluble receptor, V158 allotype; also called FcgRIIIa V; FcgRIIIaV; not shown: His tag at the C terminus
T8 sequence (P08637 17-208 F176V): as the sequence (P08637 17-208) above, with F160V counted along it
Experimental: as §1

[3] = target: T9, FcγRIIa H extracellular domain with C-terminal His tag (human, UniProt P12318 34-217); test: as above
T9 construct: extracellular domain; Soluble receptor, H131 allotype; also called FcgRIIa H; FcgRIIaH; not shown: His tag at the C terminus
T9 sequence (looked up): T1 sequence (looked up) with R134H
Experimental: as §1

[4] = target: T10, FcγRIIa R extracellular domain with C-terminal His tag (human, UniProt P12318 34-217); test: as above
T10 construct: extracellular domain; Soluble receptor, R131 allotype; also called FcgRIIa R; FcgRIIaR; not shown: His tag at the C terminus
T10 sequence (looked up): T1 sequence (looked up)
Experimental: as §1

[5] = target: T11, FcγRIIIa F extracellular domain with C-terminal His tag (human, UniProt P08637 17-208); test: as above
T11 construct: extracellular domain; Soluble receptor, F158 allotype; also called FcgRIIIa F; FcgRIIIaF; not shown: His tag at the C terminus
T11 sequence (P08637 17-208): as the sequence (P08637 17-208) above
Experimental: as §1

[6] = target: T12, FcγRIIb extracellular domain with C-terminal His tag (human, UniProt P31994 43-217); test: as above
T12 construct: extracellular domain; also called FcgRIIb; CD32B; not shown: His tag at the C terminus
T12 sequence (looked up): T2 sequence (looked up)
Experimental: as §1

[7] = target: T8, FcγRIIIa V extracellular domain with …; test: as above; remark: listed apart in the source
Experimental: (§2) Specifically, H240-Hl134 (SEQ ID NO: 88) resulting from introduction of L234Y/L235Y/G236W/H268D/S298A into H240-Hl033 and H240-Kn132 (SEQ ID NO: 89) resulting from introduction of K326D/A330M/K334E into H240-Kn033 were constructed according to the method described in Reference Example 1.
as §1

[8] = target: T11, FcγRIIIa F extracellular domain with …; test: as above; remark: listed apart in the source
Experimental: as §2, §1

B2: H240-Kn227/H240-Hl214/L73-k0 (antibody, human IgG1, kappa)
heavy 1: QDQLVQSGAEVKKPGASVKVSCKASGFNIKDTYIQWVRQAPGQGLEWMGRIDPLRKQTKYREKFEGRVTITADTSTNTAYMELSSLRSEDTAVYYCVRSGREFDYWGQGTLVTVSSASTKGPSVFPLAPSSKSTSGGTAALGCLVKDYFPEPVTVSWNSGALTSGVHTFPAVLQSSGLYSLSSVVTVPSSSLGTQTYICNVNHKPSNTKVDKKVEPKSCDKTHTCPPCPAPEEQWGPIVFLFPPKPKDTLMISRTPEVTCVVVDVSDEEPEVKFNWYVDGVEVHNAKTKPREEQYNATYRVVSVLTVLHQDWLNGKEYKCKVSNKALPAPIEKTISKAKGQPREPQVCTLPPSRDELTKNQVSLWCLVKGFYPSDIAVEWESNGQPENNYKTTPPVLDSDGSFFLYSKLTVDKSRWQQGNVFSCSVMHEALHNHYTQKSLSLSP
heavy 2: QDQLVQSGAEVKKPGASVKVSCKASGFNIKDTYIQWVRQAPGQGLEWMGRIDPLRKQTKYREKFEGRVTITADTSTNTAYMELSSLRSEDTAVYYCVRSGREFDYWGQGTLVTVSSASTKGPSVFPLAPSSKSTSGGTAALGCLVKDYFPEPVTVSWNSGALTSGVHTFPAVLQSSGLYSLSSVVTVPSSSLGTQTYICNVNHKPSNTKVDKKVEPKSCDKTHTCPPCPAPELLGGPSVFLFPPKPKDTLMISRTPEVTCVVVDVSHEEPEVKFNWYVDGVEVHNAKTKPREEQYNSTYRVVSVLTVLHQDWLNGKEYKCKVSNDALPFPIEETISKAKGQPREPQVYTLPPSRCELTKNQVSLSCAVKGFYPSDIAVEWESNGQPENNYKTTPPVLDSDGSFFLVSKLTVDKSRWQQGNVFSCSVMHEALHNHYTQKSLSLSP
light: DIQMTQSPSSLSASVGDRVTITCRASQDIHKYIAWYQQKPGQAPRLLIQYTSTLQPGVPSRFSGSGSGTDYTFTISSLQPEDIATYYCLQYEQLRTFGGGTKVEIKRTVAAPSVFIFPPSDEQLKSGTASVVCLLNNFYPREAKVQWKVDNALQSGNSQESVTEQDSKDSTYSLSSTLTLSKADYEKHKVYACEVTHQGLSSPVTKSFNRGEC
notes: 330 F in H240-Hl076
fold binding activity against H240-Kn033/H240-Hl033/L73-k0 (FcγRIIIa F): 161 fold

B4: H240-Kn203/H240-Hl210/L73-k0 (antibody, human IgG1, kappa)
heavy 1: B2 heavy 1 with E233F, Q234Y, I238M, E269D, A326D
heavy 2: B2 heavy 2 with F329A
light: B2 light
notes: 330 A in H240-Hl076
fold binding activity against H240-Kn033/H240-Hl033/L73-k0 (FcγRIIIa V): 107 fold

B5: H240-Kn061/H240-Hl071/L73-k0 (antibody, human IgG1, kappa)
heavy 1: B2 heavy 1 with E233Y, Q234Y, I238S, E269D
heavy 2: B2 heavy 2 with E269D, F329M
light: B2 light
notes: Heterodimerized anti-epiregulin IgG1, knobs-into-holes
Kd [1]: 0.14 nM
Kd [2]: 1.8 nM
Kd [3]: 280 nM
Kd [4]: 350 nM
Kd [5]: 5.1 nM
Kd [6]: 1200 nM
Kd [7]: 1.8 nM
Kd [8]: 5.1 nM

More lines, now with the values ahead:

KD ratio (FcgRIIa R): 1 fold
KD ratio (FcgRIIb): 1 fold
KD ratio (FcgRIIIa F): 1 fold
KD ratio (FcgRIIIa V): 1 fold
KD ratio (FcgRIIa H): 1 fold
KD ratio (FcgRIa): 1 fold
B1: GpH7-Kn033/GpH7-Hl033/GpL16-k0 (antibody, human IgG1, kappa)
heavy 1: not shown
heavy 2: not shown
light: DIVMTQSPLSLPVTPGEPASISCQASESLVHSNRNTYLHWYLQKPGQSPQLLIYKVSNRFSGVPDRFSGSGSGTDFTLKISRVEAEDVGVYYCSQNTHVPPTFGQGTKVEIERTVAAPSVFIFPPSDEQLKSGTASVVCLLNNFYPREAKVQWKVDNALQSGNSQESVTEQDSKDSTYSLSSTLTLSKADYEKHKVYACEVTHQGLSSPVTKSFNRGEC
notes: Anti-glypican-3 antibody; knobs-into-holes alone applied to G1d (knob chain Y349C/T366W; hole chain D356C/T366S/L368A/Y407V); also called Kn033/Hl033

fold binding activity against H240-Kn033/H240-Hl033/L73-k0 (FcγRIIa R): 83 fold
fold binding activity against H240-Kn033/H240-Hl033/L73-k0 (FcγRIIa H): 33 fold
B3: H240-Kn231/H240-Hl068/L73-k0 (antibody, human IgG1, kappa)
heavy 1: B2 heavy 1 with E233I, Q234Y, E269D, A326D
heavy 2: B2 heavy 2 with F329K
light: B2 light
